IC50, cell viability assay data for one substance are collected here from patent publication US20220001020A1.

This experiment concerns the target CD123 (human) (UniProt P26951). Nature of the experiment: cell-based or functional assay.
UniProt P26951, sequence (P26951 19-378): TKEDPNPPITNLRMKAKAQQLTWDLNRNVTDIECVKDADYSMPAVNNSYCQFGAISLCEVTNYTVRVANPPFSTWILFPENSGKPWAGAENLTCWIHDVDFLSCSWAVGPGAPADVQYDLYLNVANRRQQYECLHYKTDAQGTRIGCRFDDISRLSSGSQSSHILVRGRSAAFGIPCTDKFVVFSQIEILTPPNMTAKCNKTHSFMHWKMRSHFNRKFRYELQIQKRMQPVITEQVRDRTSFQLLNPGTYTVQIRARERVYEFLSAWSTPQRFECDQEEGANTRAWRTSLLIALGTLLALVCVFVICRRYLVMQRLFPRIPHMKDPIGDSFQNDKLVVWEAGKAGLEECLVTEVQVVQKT

In the case of “diphtheria toxin-human interleukin-3 conjugate (DT-IL3)”, the IC50, cell viability assay is 4.8 nM.
